According to patent publication US20020058247A1 (TRIPEP, published 2002):

Key:
[1] = target: T1, non-structural 3 protein (NS3) of the hepatitis C virus (HCV) (hepatitis C virus); assay: EIA, support-bound peptide, HCV NS3 control
T1 construct: Control antigen; also called HCV NS3

[2] = target: T2, Full length recombinant HBcAg (rHBcAg) encompassing residues 1-183 (hepatitis B virus, UniProt P03146 1-183); assay: EIA, support-bound peptide, HBcAg 0.2 ug/well
T2 construct: range 1-183; also called hepatitis B virus core antigen

[3] = target: T2, Full length recombinant HBcAg (rHBcAg) …; assay: EIA, support-bound peptide, HBcAg 2 ug/well
[4] = target: T2, Full length recombinant HBcAg (rHBcAg) …; assay: EIA, support-bound peptide, HBcAg 5 ug/ml

T2 sequence (P03146 whole entry, the tested form may be a part): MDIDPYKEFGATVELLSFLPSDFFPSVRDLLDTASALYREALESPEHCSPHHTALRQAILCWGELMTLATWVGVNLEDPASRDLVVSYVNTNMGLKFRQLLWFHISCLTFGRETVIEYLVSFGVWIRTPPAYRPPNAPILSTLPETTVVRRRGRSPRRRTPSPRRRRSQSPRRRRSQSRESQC

Binder | OD at 405 nm [1] | OD at 405 nm [2] | OD at 405 nm [3] | OD at 490 nm [4]
LVTVSAAKTTPPSVYPLVPV (also called Peptide # 35) [LVTVSAAKTTPPSVYPLVPV (SEQ. ID. No. 38)] | 0.032 OD |  |  | 
IQLQQSGAELVKPGASVKIS (also called Peptide # 24) [IQLQQSGAELVKPGASVKIS (SEQ. ID. No. 27)] | 0.021 OD | 0.123 OD | 0.369 OD | 
LIKYASNLESGVPARFSGSG [LIKYASNLESGVPARFSGSG (SEQ. ID. No. 20)] | 0.02 OD | 0.112 OD | 0.357 OD | 
VKLQQSGTEVVKPGASVKLS (also called Peptide # 1) [VKLQQSGTEVVKPGASVKLS (SEQ. ID. No. 4)] | 0.021 OD | 0.124 OD | 0.323 OD | 
KRADAAPAVSIFPPSSKLG (also called Peptide # 23) [KRADAAPAVSIFPPSSKLG (SEQ. ID. No. 26)] | 0.021 OD | 0.162 OD | 0.465 OD | 
SCRASQSVSTSSYSYMHWY [SCRASQSVSTSSYSYMHWY (SEQ. ID. No. 53)] |  |  |  | 1.45 OD
STSSYSYMHWY [STSSYSYMHWY (SEQ. ID. No. 61)] |  |  |  | 0.372 OD
VDKSSSTAYMQLNSLTSEDS (also called Peptide # 31) [VDKSSSTAYMQLNSLTSEDS (SEQ. ID. No. 34)] | 0.106 OD | 0.114 OD | 0.338 OD | 
GVPARFSGSGSGTDFTLNIH [GVPARFSGSGSGTDFTLNIH (SEQ. ID. No. 21)] | 0.027 OD | 0.141 OD | 0.409 OD | 
YDIDWVRQTPEQGLEWIGWI (also called Peptide # 4) [YDIDWVRQTPEQGLEWIGWI (SEQ. ID. No. 7)] | 0.089 OD |  |  | 
TFGGGTKLEIKRADAAPAV (also called Peptide # 22) [TFGGGTKLEIKRADAAPAV (SEQ. ID. No. 25)] | 0.024 OD | 0.084 OD | 0.273 OD | 
CKASGYIFTSYDIDWVRQTP (also called Peptide # 3) [CKASGYIFTSYDIDWVRQTP (SEQ. ID. No. 6)] | 0.032 OD |  |  | 
EKFKGRATLSVDKSSSTAYM (also called Peptide # 7) [EKFKGRATLSVDKSSSTAYM (SEQ. ID. No. 10)] | 0.035 OD | 0.194 OD | 0.883 OD | 
SGTDFTLNIHPVEEEDTATY [SGTDFTLNIHPVEEEDTATY (SEQ. ID. No. 22)] | 0.206 OD | 0.205 OD | 0.649 OD | 
FPGEGSTEYNEKFKGRATLS (also called Peptide # 6) [FPGEGSTEYNEKFKGRATLS (SEQ. ID. No. 9)] | 0.109 OD | 0.121 OD | 0.325 OD | 
ASQSVSTSSYSYMHWY [ASQSVSTSSYSYMHWY (SEQ. ID. No. 56)] |  |  |  | 0.324 OD
TGFAYWGQGTLVTVSAAKTT (also called Peptide # 34) [TGFAYWGQGTLVTVSAAKTT (SEQ. ID. No. 37)] | 0.035 OD | 0.192 OD | 0.898 OD | 
SQSVSTSSYSYMHWY [SQSVSTSSYSYMHWY (SEQ. ID. No. 57)] |  |  |  | 0.31 OD

Binder | OD at 405 nm [1] | OD at 405 nm [2] | OD at 405 nm [3] | OD at 490 nm [4]
VDKSSSTAYMELTRLTSEDS (also called Peptide # 8) [VDKSSSTAYMELTRLTSEDS (SEQ. ID. No. 11)] | 0.041 OD | 0.134 OD | 0.363 OD | 
NPYYGSTSYNQKFKGKATLT (also called Peptide # 29) [NPYYGSTSYNQKFKGKATLT (SEQ. ID. No. 32)] | 0.021 OD | 0.213 OD | 0.783 OD | 
SVSTSSYSYMHWY [SVSTSSYSYMHWY (SEQ. ID. No. 59)] |  |  |  | 0.305 OD
GKSLEWIGNINPYYGSTSYN (also called Peptide # 28) [GKSLEWIGNINPYYGSTSYN (SEQ. ID. No. 31)] | 0.028 OD | 0.114 OD | 0.289 OD | 
VSTSSYSYMHWY [VSTSSYSYMHWY (SEQ. ID. No. 60)] |  |  |  | 0.369 OD
AVYFCARGDYDYYRRYFDLW (also called Peptide # 10) [AVYFCARGDYDYYRRYFDLW (SEQ. ID. No. 13)] | 0.038 OD | 0.304 OD | 0.981 OD | 
QLNSLTSEDSAVYYCARGKG (also called Peptide # 32) [QLNSLTSEDSAVYYCARGKG (SEQ. ID. No. 35)] | 0.035 OD |  |  | 
AVYYCARGKGTGFAYWGQGT (also called Peptide # 33) [AVYYCARGKGTGFAYWGQGT (SEQ. ID. No. 36)] | 0.035 OD | 0.227 OD | 1.2 OD | 
ELTRLTSEDSAVYFCARGDY (also called Peptide # 9) [ELTRLTSEDSAVYFCARGDY (SEQ. ID. No. 12)] | 0.073 OD |  |  | 
QSVSTSSYSYMHWY [QSVSTSSYSYMHWY (SEQ. ID. No. 58)] |  |  |  | 0.282 OD
CRASQSVSTSSYSYMHWY [CRASQSVSTSSYSYMHWY (SEQ. ID. No. 54)] |  |  |  | 1.42 OD
PVEEEDTATYYCQHSWEIPY (also called Peptide # 20) [PVEEEDTATYYCQHSWEIPY (SEQ. ID. No. 23)] | 0.124 OD | 0.207 OD | 0.625 OD | 
EQGLEWIGWIFPGEGSTEYN (also called Peptide # 5) [EQGLEWIGWIFPGEGSTEYN (SEQ. ID. No. 8)] | 0.182 OD | 0.256 OD | 0.706 OD | 
TSSYSYMHWYQQKPGQPPKL [TSSYSYMHWYQQKPGQPPKL (SEQ. ID. No. 18)] | 0.028 OD | 0.574 OD | 1.44 OD | 
QKFKGKATLTVDKSSSTAYM (also called Peptide # 30) [QKFKGKATLTVDKSSSTAYM (SEQ. ID. No. 33)] | 0.035 OD | 0.207 OD | 1.11 OD | 
YCQHSWEIPYTFGGGTKLEI (also called Peptide # 21) [YCQHSWEIPYTFGGGTKLEI (SEQ. ID. No. 24)] | 0.052 OD | 0.173 OD | 0.498 OD | 
DYYRRYFDLWGQGTTVTVS (also called Peptide # 11) [DYYRRYFDLWGQGTTVTVS (SEQ. ID. No. 14)] | 0.022 OD | 0.133 OD | 0.356 OD | 
